Patent US20140051120A1 (Genentech, published 2014)
Positions count from the first letter of the chain named. Where no end group is shown, it is not given here.

T1: p5 peptide of EGFL7 (human)
T1 construct: also called Peptide P5
T1 peptide: RACSTYRTIYRTA

T2: mouse EGFL7 (mEGFL7-CB-His) (mouse, UniProt Q9QXT5 22-275)
T2 sequence: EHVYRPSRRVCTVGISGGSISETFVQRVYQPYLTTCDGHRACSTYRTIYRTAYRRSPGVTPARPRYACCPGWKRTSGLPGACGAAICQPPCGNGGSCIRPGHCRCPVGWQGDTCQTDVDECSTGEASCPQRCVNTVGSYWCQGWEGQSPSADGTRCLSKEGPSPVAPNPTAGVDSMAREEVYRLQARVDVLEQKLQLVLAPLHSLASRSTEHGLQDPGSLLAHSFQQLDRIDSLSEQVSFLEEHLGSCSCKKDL

T3: human EGFL7 (EGFL7-CB-His) (human, UniProt Q9UHF1 23-273, limits assumed)
T3 sequence: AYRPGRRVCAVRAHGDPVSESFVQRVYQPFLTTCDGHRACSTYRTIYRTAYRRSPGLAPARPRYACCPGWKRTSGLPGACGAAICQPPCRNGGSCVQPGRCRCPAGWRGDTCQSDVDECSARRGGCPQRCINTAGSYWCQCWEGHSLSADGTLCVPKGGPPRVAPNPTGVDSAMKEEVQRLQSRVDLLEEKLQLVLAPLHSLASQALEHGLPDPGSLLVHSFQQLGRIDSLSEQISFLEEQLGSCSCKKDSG

T4: p2S (p2 peptide biotinylated through its free cysteine) (human, also: biotinylated (maleimide PEO2-biotin) on one of the two Cys, which one not given here)
T4 construct: The peptide has two cysteines; also called b-p2S
T4 peptide: RPRYACCPGWKRT

B1: 18F7.v10 IgG (antibody, V domains shown)
VH: EVQLVESGGGLVQPGGSLRLSCAASGYTFIDYYMNWVRQAPGKGLEWVGDINLDNGGTHYNQKFKGRFTISRDKSKNTAYLQMNSLRAEDTAVYYCAREGVYHPYDDYAMDYWGQGTLVTVSS
VL: DIQMTQSPSSLSASVGDRVTITCRTSQSLVHINGITYLHWYQQKPGKAPKLLIYRVSNRFSGVPSRFSGSGSGTDFTLTISSLQPEDFATYYCSQSTHVPLTFGQGTKVEIK
notes: IgG; Kabat numbering
B2: 18F7.v6C IgG (antibody, V domains shown)
VH: B1 VH with G56S, P104D
VL: B1 VL with S94G
notes: IgG; Variant of 18F7.v6
B3: 18F7.v6B IgG (antibody, V domains shown)
VH: B1 VH with N55S, P104D
VL: B1 VL with S94G
notes: IgG; Variant of 18F7.v6
B4: 18F7.v6A IgG (antibody, V domains shown)
VH: B1 VH with P104D
VL: B1 VL with N33S, S94G
notes: IgG; Variant of 18F7.v6
B5: 4F11.v17 IgG (antibody, V domains shown)
VH: EVQLVESGGGLVQPGGSLRLSCAASGHTFTTYGMSWVRQAPGKGLEWVGWINTHSGVPTYADDFKGRFTISLDNSKNTAYLQMNSLRAEDTAVYYCARLGSYAVDYWGQGTLVTVSS
VL: DIQMTQSPSSLSASVGDRVTITCKASQSVDYSGDSYMSWYQQKPGKAPKLLIYGASYRESGVPSRFSGSGSGTDFTLTISSLQPEDFATYYCQQNNEEPYTFGQGTKVEIKR
notes: IgG; Library 1 framework; also called hu4F11.v17
B6: 4F11.v22 IgG (antibody, V domains shown)
VH: B5 VH with V2I, V48M, N77S, Y95F
VL: B5 VL
notes: IgG; Library 2 framework
B7: 18F7.v6D IgG (antibody, V domains shown)
VH: B1 VH with N55S, P104D
VL: B1 VL with N33S, S94G
notes: IgG; Variant of 18F7.v6
B8: 4F11.v6 IgG (antibody, V domains shown)
VH: B5 VH with L72R, A79V, Y102S
VL: DIQMTQSPSSLSASVGDRVTITCKASQSVDYDGDSYMSWYQQKPGKAPKLLIYGASYLESGVPSRFSGSGSGTDFTLTISSLQPEDFATYYCQQNNEDPYTFGQGTKVEIK
notes: IgG; Kabat numbering
B9: 4F11.v10 IgG (antibody, V domains shown)
VH: B5 VH with L72R, A79V
VL: B8 VL
notes: IgG; Kabat numbering
B10: 4F11.v15 IgG (antibody, name in Kabat numbering, V domains shown)
VH: B5 VH with Y102S
VL: B5 VL with S32D, Y57N, R58L, E98D
notes: IgG; Kabat numbering
B11: 4F11.v13 IgG (antibody, name in Kabat numbering, V domains shown)
VH: B5 VH with Y102S
VL: B5 VL with M4L, S32D, Y57N, R58L, E98D
notes: IgG; Kabat numbering
B12: 4F11.v14 IgG (antibody, name in Kabat numbering, V domains shown)
VH: B5 VH with V2I, V48M, I70F, N74T, K76A, N77S, Y95F, Y102S
VL: B5 VL with M4L, S32D, Y57N, R58L, E98D
notes: IgG; Kabat numbering
B13: 4F11.v16 IgG (antibody, name in Kabat numbering, V domains shown)
VH: B5 VH with V2I, V48M, I70F, N74T, K76A, N77S, Y95F, Y102S
VL: B5 VL with S32D, Y57N, R58L, E98D
notes: IgG; Kabat numbering
B14: 4F11.v9 IgG (antibody, V domains shown)
VH: B5 VH with F29R, L72R, A79V, Y102S
VL: B8 VL with Y57N
notes: IgG; Kabat numbering
B15: 4F11.v5 IgG (antibody, V domains shown)
VH: B5 VH with L72R, A79V, Y102S
VL: B8 VL with M37V, Y57N
notes: IgG; Kabat numbering
B16: 4F11.v12 IgG (antibody, V domains shown)
VH: B5 VH with T53I, L72R, A79V, Y102S
VL: B8 VL with Y57N
notes: IgG; Kabat numbering
B17: 4F11.v4 IgG (antibody, V domains shown)
VH: B5 VH with L72R, A79V, Y102S
VL: B8 VL with D32R, Y57N
notes: IgG; Kabat numbering
B18: 4F11.v1 IgG (antibody, V domains shown)
VH: B5 VH with L72R, A79L, Y102S
VL: B5 VL with S32D, Y57N, R58L, E98D
notes: Expressed as IgG in 293 cells; also called 4F11-graft; direct CDR-graft
B19: 4F11.v2 IgG (antibody, name in Kabat numbering, V domains shown)
VH: B5 VH with L72R, A79T, Y102S
VL: B5 VL with S32D, Y57N, R58L, E98D
notes: IgG; Kabat numbering
B20: 4F11.v3 IgG (antibody, name in Kabat numbering, V domains shown)
VH: B5 VH with L72R, A79V, Y102S
VL: B5 VL with S32D, Y57N, R58L, E98D
notes: IgG; Kabat numbering

Target: T1, p5 peptide of EGFL7
Experiment: SPR (Biacore), IgG over immobilized P5 peptide at 37 C;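 note: IgG variants injected at 0.5–1000 nM (2-fold series), 3 min association and 3.5 min dissociation, reference flow cell subtracted, kinetics fitted with a 1:1 Langmuir model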

Kd	koff	kon	Binder
0.982 nM	0.000811 s⁻¹	825000 M⁻¹ s⁻¹	B1

What follows are binders tested against T2, mouse EGFL7 (mEGFL7-CB-His) (assay: SPR (Biacore), IgG over immobilized mEGFL7-CB at 37 C, n = 2).
Experimental: (§1) Affinity determinations were performed by surface plasmon resonance using a BIAcore™-2000. Truncated EGFL7 or p5 peptide was immobilized (approximately 50-200 RU) in 10 mM sodium acetate pH 4.8 on a CMS sensor chip. Purified IgG variants were injected (using a 2-fold serial dilution of 0.5 to 1000 nM in PBST) at a flow rate of 30 μL/min. Each sample was analyzed with 3-minute association and 3.5-minute disassociation. After each injection the chip was regenerated using 10 mM glycine pH 1.7.
(§2) Binding response was corrected by subtracting a control flow cell from IgG variant flow cells. A 1:1 Languir model of simultaneous fitting of kₒₙ and koff was used for kinetics analysis.

Kd	koff	kon	Binder
2.4 nM	8.1e-05 s⁻¹	36000 M⁻¹ s⁻¹	B2
2.68 nM	0.000174 s⁻¹	79000 M⁻¹ s⁻¹	B3
7.29 nM	0.000404 s⁻¹	55000 M⁻¹ s⁻¹	B4

What follows are binders tested against T3, human EGFL7 (EGFL7-CB-His) (assay: cell-based or functional assay).

Cell Adhesion Assay (human EGFL7) Variant/ch4F11 (fold)	Binder
0.86 fold	B5
0.81 fold	B6

What follows are binders tested against T2, mouse EGFL7 (mEGFL7-CB-His) (assay: cell-based or functional assay).

IC50 (read off the curve), HUVEC adhesion	Binder
~10 µg/mL	B5

Target: T1, p5 peptide of EGFL7
Experiment: SPR (Biacore), IgG over immobilized P5 peptide at 37 C, n = 2

Kd	koff	kon	Binder
4.13 nM	0.000502 s⁻¹	124000 M⁻¹ s⁻¹	B2
3.22 nM	0.000638 s⁻¹	196000 M⁻¹ s⁻¹	B3
3.74 nM	0.00137 s⁻¹	373000 M⁻¹ s⁻¹	B4
9.77 nM	0.00232 s⁻¹	313000 M⁻¹ s⁻¹	B7

These binders were tested against EGFL7 coated on plates in the cell adhesion assay (human or mouse, not told apart at this place) (assay: cell-based or functional assay).

Cell Adhesion Assay Variant/ch4F11 (fold)	Binder
4.01 fold	B8
4.38 fold	B9

These binders were tested against T2, mouse EGFL7 (mEGFL7-CB-His) (assay: SPR (Biacore), IgG over immobilized mEGFL7-CB at 37 C;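 note: IgG injected as twofold series from 0.5 to 1000 nM, 3 min association and 3.5 min dissociation, reference flow cell subtracted, kinetics fitted to 1:1 Langmuir model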).
Experimental: as §1, §2

Kd	koff	kon	Binder
1.22 nM	0.000195 s⁻¹	160000 M⁻¹ s⁻¹	B1
7.65 nM	0.000791 s⁻¹	103000 M⁻¹ s⁻¹	B7

Target: T4, p2S (p2 peptide biotinylated through …)
Experiment: SPR (BIAcore-2000), IgG injected over immobilized p2S peptide
Experimental: (§3) Affinity determinations were performed by surface plasmon resonance using a BIAcore™-2000. […] Purified IgG variants were injected (using a 2-fold serial dilution of 0.5 to 1000 nM in PBST) at a flow rate of 30 μL/min. Each sample was analyzed with 3-minute association and 3.5-minute disassociation. After each injection the chip was regenerated using 10 mM glycine pH 1.7.
as §2

Kd	koff	kon	Binder
30.5 nM	0.00276 s⁻¹	90500 M⁻¹ s⁻¹	B10
12.5 nM	0.00186 s⁻¹	149000 M⁻¹ s⁻¹	B11
7 nM	0.000984 s⁻¹	141000 M⁻¹ s⁻¹	B12
16.8 nM	0.00165 s⁻¹	98100 M⁻¹ s⁻¹	B13

Target: T4, p2S (p2 peptide biotinylated through …)
Experiment: as above
Remark: another data set of the same source
Experimental: as §3, §2

Kd	koff	kon	Binder
19.5 nM	0.0024 s⁻¹	123000 M⁻¹ s⁻¹	B8
9 nM	0.0023 s⁻¹	264000 M⁻¹ s⁻¹	B14
34 nM	0.00242 s⁻¹	71100 M⁻¹ s⁻¹	B15
27.4 nM	0.00197 s⁻¹	72000 M⁻¹ s⁻¹	B9
11.1 nM	0.00218 s⁻¹	196000 M⁻¹ s⁻¹	B16
13.6 nM	0.00314 s⁻¹	231000 M⁻¹ s⁻¹	B17
96.8 nM	0.00331 s⁻¹	34200 M⁻¹ s⁻¹	B18
54.4 nM	0.00291 s⁻¹	53500 M⁻¹ s⁻¹	B19
34.6 nM	0.00292 s⁻¹	84500 M⁻¹ s⁻¹	B20

Target: T4, p2S (p2 peptide biotinylated through …)
Experiment: SPR (Biacore), binding to p2S, KD relative to ch4F11

Fold change in KD variant/(chimera)	Binder
0.93 fold	B5
1 fold	B6
